This assay addresses VAP-B (human (endogenous in Huh7)) (UniProt O95292). Description: co-IP; lysates of Huh7 cells stably harboring wild-type, S225D or S225A SGRs immunoprecipitated with antibodies to NAP1L1, Bin1, VAP-A or VAP-B; Western blot for NS5A, quantified (n = 3). A general note: In western blotting, separated proteins are transferred to a membrane and probed.

The results in this text go back to paper PMC5553161.

Sequence of UniProt O95292 (O95292 whole entry): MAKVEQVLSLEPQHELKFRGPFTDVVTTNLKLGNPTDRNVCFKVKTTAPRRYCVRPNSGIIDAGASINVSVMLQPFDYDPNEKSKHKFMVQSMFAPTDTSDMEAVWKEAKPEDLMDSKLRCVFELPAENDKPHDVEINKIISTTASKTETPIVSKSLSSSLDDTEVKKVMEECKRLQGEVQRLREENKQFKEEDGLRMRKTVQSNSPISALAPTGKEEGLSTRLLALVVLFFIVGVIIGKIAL

“One-Strep-tagged (OST) NS5A S225A of hepatitis C virus JFH-1 (genotype 2a) (natural protein)” had a reduction in the level bound, against wild type of 50%.
